Data on 6 molecules can be found in article PMC3673036 (Bioscience Reports, 2013).

The target of data set [1] is T1, EphB2 (Homo sapiens, UniProt P29323).
T1 construct: kinase domain 604-898 without juxtamembrane region; N-terminal His6-TEV tag cleaved (GSS left); E. coli BL21 Star (DE3), PTP1B co-expressed; unphosphorylated; synthetic codon-optimized gene
T1 sequence (P29323 604-898): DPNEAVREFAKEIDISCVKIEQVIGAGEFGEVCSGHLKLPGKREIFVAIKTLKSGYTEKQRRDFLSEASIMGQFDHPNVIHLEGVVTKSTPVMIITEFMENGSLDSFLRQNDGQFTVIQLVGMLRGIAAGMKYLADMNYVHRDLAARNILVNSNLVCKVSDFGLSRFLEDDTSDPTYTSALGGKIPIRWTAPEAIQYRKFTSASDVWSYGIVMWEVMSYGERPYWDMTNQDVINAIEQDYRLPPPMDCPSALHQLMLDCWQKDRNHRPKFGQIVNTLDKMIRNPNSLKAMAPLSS
The experiment in a line: ADP-Glo luminescent kinase assay, Michaelis-Menten fit. The class given is biochemical. Conditions: […] poly-(Glu:Tyr) […], MgCl2, Hepes pH […]°C; read-out: Km ATP. The text has this:
ADP-Glo luminescent kinase assay, Michaelis-Menten fit on EphB2
(In general: ADP-Glo first removes unused ATP, then detects ADP through luciferase.)

The target of data set [2] is T1, EphB2. Put plainly: ADP-Glo luminescent kinase assay. Type of data set: biochemical. Conditions: ATP and poly-(Glu:Tyr) […] at Km of each kinase; MgCl2, Hepes pH […]°C, […] min, […] DMSO; unreliable: below assay tight binding limit of about […]. The source says:
ADP-Glo luminescent kinase assay on EphB2

The target in the next data set is T2, EphB1 (Homo sapiens, UniProt P54762).
T2 construct: kinase domain 602-896 without juxtamembrane region; N-terminal His6-TEV tag cleaved (GSS left); E. coli BL21 Star (DE3), PTP1B co-expressed; unphosphorylated; synthetic codon-optimized gene
T2 sequence (P54762 602-896): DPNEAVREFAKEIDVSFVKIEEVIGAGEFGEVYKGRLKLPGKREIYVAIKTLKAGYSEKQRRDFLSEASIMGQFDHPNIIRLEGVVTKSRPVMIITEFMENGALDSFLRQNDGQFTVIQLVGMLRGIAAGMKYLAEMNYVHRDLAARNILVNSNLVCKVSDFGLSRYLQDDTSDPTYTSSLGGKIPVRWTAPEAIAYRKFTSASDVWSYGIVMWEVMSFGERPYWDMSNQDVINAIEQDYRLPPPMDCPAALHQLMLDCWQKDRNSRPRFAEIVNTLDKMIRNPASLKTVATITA
The experiment in a line: ADP-Glo luminescent kinase assay. Type of data set: biochemical. Conditions: ATP and poly-(Glu:Tyr) […] at Km of each kinase; MgCl2, Hepes pH […]°C, […] min, […] DMSO; unreliable: below assay tight binding limit of about […]. The source says:
ADP-Glo luminescent kinase assay on EphB1

Substrate in data set [3]: Nc1ncnc2c1ncn2[C@@H]1O[C@H](COP(=O)(O)OP(=O)(O)OP(=O)(O)O)[C@@H](O)[C@H]1O
Put plainly: ADP-Glo luminescent kinase assay, Michaelis-Menten fit. The class given is biochemical, Homo sapiens. Conditions: […] poly-(Glu:Tyr) […], MgCl2, Hepes pH […]. The text has this:
ADP-Glo luminescent kinase assay, Michaelis-Menten fit on EphB4

Substrate in data set [4]: Nc1ncnc2c1ncn2[C@@H]1O[C@H](COP(=O)(O)OP(=O)(O)OP(=O)(O)O)[C@@H](O)[C@H]1O
The description is as above. Type of data set: biochemical, Homo sapiens. The settings on record: […] poly-(Glu:Tyr) […], MgCl2, Hepes pH […]. The text has this: ADP-Glo luminescent kinase assay, Michaelis-Menten fit on EphB3
The source holds these as a separate data set.

Substrate in data set [5]: Nc1ncnc2c1ncn2[C@@H]1O[C@H](COP(=O)(O)OP(=O)(O)OP(=O)(O)O)[C@@H](O)[C@H]1O
Described as above. The class given is biochemical, Homo sapiens. Conditions: […] poly-(Glu:Tyr) […], MgCl2, Hepes pH […]. The text has this: ADP-Glo luminescent kinase assay, Michaelis-Menten fit on EphB1
This is another data set of the same source.

Numbering of substitutions follows the chain as printed. Numbers in names are those of the source.

`Nc1ncnc2c1ncn2[C@@H]1O[C@H](COP(=O)(O)OP(=O)(O)OP(=O)(O)O)[C@@H](O)[C@H]1O` [ATP]: the Michaelis constant (Km) (in general, the substrate concentration at which the rate is half of its maximum) at EphB2 [1] turned out to be 751 ± 80 µM.

Take `Cc1nc(Nc2ncc(C(=O)Nc3c(C)cccc3Cl)s2)cc(N2CCN(CCO)CC2)n1` [Dasatinib]: on EphB2 [2], the “EphB2 / IC50” value stood at 7 nM. On EphB1, the “EphB1 / IC50” value worked out at 0.01 µM.

B1: EphB4 (Homo sapiens) (protein)
chain: DPNEAVREFAKEIDVSYVKIEEVIGAGEFGEVCRGRLKAPGKKESCVAIKTLKGGYTERQRREFLSEASIMGQFEHPNIIRLEGVVTNSMPVMILTEFMENGALDSFLRLNDGQFTVIQLVGMLRGIASGMRYLAEMSYVHRDLAARNILVNSNLVCKVSDFGLSRFLEENSSDPTYTSSLGGKIPIRWTAPEAIAFRKFTSASDAWSYGIVMWEVMSFGERPYWDMSNQDVINAIEQDYRLPPPPDCPTSLHQLMLDCWQKDRNARPRFPQVVSALDKMIRNPASLKIVARENG
notes: kinase domain 598-892 without juxtamembrane region; N-terminal His6-TEV tag cleaved (GSS left); E. coli BL21 Star (DE3), PTP1B and GroES/GroEL co-expressed; unphosphorylated; synthetic codon-optimized gene
As for B1, in data set [3], the Michaelis constant (Km) turned out to be 497 ± 39 µM and the kcat (in general, the maximal rate divided by the concentration of active sites) came to 0.51 ± 0.01 s⁻¹.

B2: EphB3 (Homo sapiens) (protein)
chain: DPNEAVREFAKEIDVSCVKIEEVIGAGEFGEVCRGRLKQPGRREVFVAIKTLKVGYTERQRRDFLSEASIMGQFDHPNIIRLEGVVTKSRPVMILTEFMENCALDSFLRLNDGQFTVIQLVGMLRGIAAGMKYLSEMNYVHRDLAARNILVNSNLVCKVSDFGLSRFLEDDPSDPTYTSSLGGKIPIRWTAPEAIAYRKFTSASDVWSYGIVMWEVMSYGERPYWDMSNQDVINAVEQDYRLPPPMDCPTALHQLMLDCWVRDRNLRPKFSQIVNTLDKLIRNAASLKVIASAQS
notes: kinase domain 616-910 without juxtamembrane region; N-terminal His6-TEV tag cleaved (GSS left); E. coli BL21 Star (DE3), PTP1B co-expressed; unphosphorylated; synthetic codon-optimized gene
Consider B2, for which, in data set [4], the Km is 506 ± 48 µM and the catalytic constant (kcat) turned out to be 0.43 ± 0.01 s⁻¹.

B3: EphB3 (Homo sapiens; C717G) (protein)
chain: B2 chain with C102G
notes: as for B2
As to B3, in data set [4], the Michaelis constant (Km) worked out at 659 ± 67 µM and the kcat stood at 0.86 ± 0.03 s⁻¹.

B4: EphB1 (Homo sapiens) (protein)
chain: T2 sequence (P54762 602-896)
notes: kinase domain 602-896 without juxtamembrane region; N-terminal His6-TEV tag cleaved (GSS left); E. coli BL21 Star (DE3), PTP1B co-expressed; unphosphorylated; synthetic codon-optimized gene
For B4, in data set [5], the Michaelis constant (Km) turned out to be 555 ± 36 µM and the catalytic constant (kcat) stood at 0.80 ± 0.02 s⁻¹.
